Data reported in paper PMC7102968, “The complex formed between a synthetic RNA aptamer and the transcription repressor TetR is a structural and functional twin of the operator DNA–TetR regulator complex” (Nucleic Acids Research, 2020).

Biological target: the molecule itself
Experiment: crystal structure; TetR co-crystallised with RNA aptamer K1 (2.7 Å) or K2 (2.9 Å); complex purified by gel filtration in 20 mM Tris-HCl pH 8.0, 150 mM NaCl, 5 mM MgCl2; sitting-drop vapor diffusion at 20°C

B1: TetR type BD' (TetR (B1–B187:D188–D208; C68S, C88N, C121T and C144S)) (natural protein)
chain: MSRLDKSKVINSALELLNEVGIEGLTTRKLAQKLGVEQPTLYWHVKNKRALLDALAIEMLDRHHTHFSPLEGESWQDFLRNNAKSFRNALLSHRDGAKVHLGTRPTEKQYETLENQLAFLTQQGFSLENALYALSAVGHFTLGSVLEDQEHQVAKEERETPTTDSMPPLLRQAIELFDHQGAEPAFLHGLESLIRGFEVQLTALLQIV
notes: TetR class B, residues 1-187 of the cysteine-free chimeric TetR type BD'; TetR class D, residues 188-208 of the chimeric TetR type BD'; homodimer; also called Tet repressor; wild-type TetR; source: purified
For B1, the “stoichiometry N” value was 2.
